# Data taken from US20250304677A1 (VIB VZW, published 2025).
# Substitutions are numbered along the chain they refer to. Names may count otherwise.
# B1: P01500012: P0150001 with M32I (VHH)
# VHH: EVQLVESGGGLVQPGGSLRLSCAASGSGFSGIIMGWYRQAPGKQRELVATVTSHGTTNYADSVKGRFTISRDNAKNTVYLQMNSLRPEDTAVYYCNAHFPGIYWGKGTLVTVSS
# notes: Entry carries a His6 tag
# B2: P01500079: P01500001[E1D]Flag3-His6-GS-NT (VHH)
# VHH: B1 VHH with E1D, I32M
# notes: Entry includes tags, linker and NT(8-13); also called humanised 2HFO42, P01500079
# B3: 2MFR67 (E72D, D72N, S74A)-NT (VHH, not shown: small tags and cut ends)
# VHH: B1 VHH with E1Q, V5Q, P14A, I32M, Y79L, R86K, L109Q
# notes: Second substitution printed D72N; also called 2MFR67 triple mutant
# B4: 2HFO9 (I51V,G54H)-NT (VHH)
# VHH: B1 VHH with E1Q, V5Q, P14A, I32M, Y79L, R86K, L109Q
# notes: not shown: neurotensin tridecapeptide (NT) and any linker or tags of the fusion
# B5: [D72P] (VHH)
# VHH: B1 VHH with I32M, D72P
# notes: library clone tested as crude periplasmic extract; also called P01500001[D72P]
# B6: [I33L] (VHH)
# VHH: B1 VHH with I32M, I33L
# notes: library clone tested as crude periplasmic extract; also called P01500001[I33L]
# B7: [V51R] (VHH)
# VHH: B1 VHH with I32M, V51R
# notes: library clone tested as crude periplasmic extract; also called P01500001[V51R]
# B8: P01500056: P01500001(I33L, D72P, N73G)-FLAG3-HIS6 (VHH)
# VHH: B1 VHH with I32M, I33L, D72P, N73G
# notes: also called P0150056
# B9: P01500089: P0150001 with S27T, M32I, N76D (VHH)
# VHH: B1 VHH with S27T, N76D
# B10: 2HFO9(I51V)-NT (VHH)
# VHH: B1 VHH with E1Q, V5Q, P14A, I32M, H54G, Y79L, R86K, L109Q
# notes: as for B4
# B11: P01500088: P0150001 with S27T, M32I (VHH)
# VHH: B1 VHH with S27T
# B12: 2HFO9(G54H)-NT (VHH)
# VHH: B1 VHH with E1Q, V5Q, P14A, I32M, V51I, Y79L, R86K, L109Q
# notes: as for B4
# B13: P01500090: P0150001 with A24V, S27L, M32P, N67E (VHH)
# VHH: B1 VHH with A24V, S27L, I32P, N76E
# B14: P01500072: P01500001[E1D, G26E, G28P, D72E, N73G]Flag3-His6-GS-NT (VHH)
# VHH: B1 VHH with E1D, G26E, G28P, I32M, D72E, N73G
# notes: Entry includes tags, linker and NT(8-13)
# B15: P01500085: P0150001 with A24V, S27L, M32P (VHH)
# VHH: B1 VHH with A24V, S27L, I32P
# B16: P01500070: P01500001[E1D, I33F, N73P]Flag3-His6-GS-NT (VHH)
# VHH: B1 VHH with E1D, I32M, I33F, N73P
# notes: Entry includes tags, linker and NT(8-13); produced in HEK-F cells
# B17: P01500086: P0150001 with A24L, S27A, M32P (VHH)
# VHH: B1 VHH with A24L, S27A, I32P
# B18: [D72E] (VHH)
# VHH: B1 VHH with I32M, D72E
# notes: library clone tested as crude periplasmic extract; also called P01500001[D72E]
# B19: [G28P] (VHH)
# VHH: B1 VHH with G28P, I32M
# notes: library clone tested as crude periplasmic extract; also called P01500001[G28P]
# B20: [N73G] (VHH)
# VHH: B1 VHH with I32M, N73G
# notes: library clone tested as crude periplasmic extract; also called P01500001[N73G]
# B21: P01500057: P01500001(G26E, G28P, D72E, N73G)-FLAG3-HIS6 (VHH)
# VHH: B1 VHH with G26E, G28P, I32M, D72E, N73G
# notes: also called P0150057
# B22: P01500014: P0150001 with M32P (VHH)
# VHH: B1 VHH with I32P
# notes: Entry carries a His6 tag
# B23: [S30I] (VHH)
# VHH: B1 VHH with S30I, I32M
# notes: library clone tested as crude periplasmic extract; also called P01500001[S30I]
# B24: P01500071: P01500001[E1D, G26E, I33F]Flag3-His6-GS-NT (VHH)
# VHH: B1 VHH with E1D, G26E, I32M, I33F
# notes: as for B14
# B25: [I33F] (VHH)
# VHH: B1 VHH with I32M, I33F
# notes: library clone tested as crude periplasmic extract; also called P01500001[I33F]
# B26: [G28T] (VHH)
# VHH: B1 VHH with G28T, I32M
# notes: library clone tested as crude periplasmic extract; also called P01500001[G28T]
# B27: P01500084: P0150001 with A24V, S27T, M32I, N76D (VHH)
# VHH: B1 VHH with A24V, S27T, N76D
# B28: P01500087: P0150001 with A24L, S27A, M32P, N67E (VHH)
# VHH: B1 VHH with A24L, S27A, I32P, N76E
# Key:
# [1] = molecular target: T1, human folate receptor alpha (hFRα), recombinant protein (human, UniProt P15328 25-233); experiment: BLI
# T1 construct: Bought recombinant proteins (His-tagged, or biotinylated via Avi-tag, e.g. AcroBiosystems FO1-H82E2, F01-H52H1); also called hFOLR1; huFOLR1
# Outline: (§1)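 Fold change compares each variant with its wild-type VHH, as the negative of variant koff over wild-type koff for a worse off-rate, or wild-type koff over variant koff for a better one. Off-rates came from biolayer interferometry against biotinylated human and mouse folate receptor alpha on streptavidin biosensors. Calculation of koff relied on a 1:1 binding model.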
# [2] = molecular target: T2, mouse folate receptor alpha (mFRα), recombinant protein (mouse, UniProt P35846 25-232); experiment: BLI
# T2 construct: Bought recombinant proteins (e.g. biotinylated, Acro Biosystems FO1-M82E9); also called mFOLR1; Ms FOLR1
# Outline: as §1
# [3] = molecular target: T1, human folate receptor alpha (hFRα), …; experiment: BLI off-rate analysis
# [4] = molecular target: T2, mouse folate receptor alpha (mFRα), …; experiment: BLI off-rate analysis
# [5] = molecular target: T1, human folate receptor alpha (hFRα), …; experiment: BLI, biotinylated FOLR1 on streptavidin biosensors
# Protocol: (§2) The off-rates of the 2HFO9 ^{∘}FIG. 5A) and 2MFR67 ^{∘}FIG. 5B) mutants and the three wild-type ^{∘}WT) VHHs from family 3 were determined by biolayer interferometry ^{∘}BLI) on both mouse and human biotinylated folate receptor alpha ^{∘}FOLR1) that was immobilized on streptavidin biosensors. The off-rates were calculated using a 1:1 binding model. The fold change compared to the off-rates of the corresponding WT VHH is represented as the WT VHH off-rate divided by the off-rate of the mutant for the VHHs that show an improved off-rate compared to the WT. For the VHHs that show a worse off-rate compared to the WT, the fold change is represented as the negative value of the mutant VHH off-rate divided by the WT off-rate. The red bars represent the WT 2HFO9 and 2MFR67 in the upper and lower panel respectively.
# [6] = molecular target: T2, mouse folate receptor alpha (mFRα), …; experiment: BLI, biotinylated FOLR1 on streptavidin biosensors
# Protocol: as §2
# [7] = molecular target: T2, mouse folate receptor alpha (mFRα), …; experiment: BLI off-rate screening, crude periplasmic extract, biotinylated mouse FRα on streptavidin biosensors
# Protocol: (§3) Non-redundant clones were tested as crude periplasmatic extracts for binding analysis to human FRα and mouse FRα proteins captured on streptavidin biosensors in BLI. Variants P0150001 and P0150005 grown in the same 96-well plates were included as controls.
# [8] = molecular target: T1, human folate receptor alpha (hFRα), …; experiment: BLI off-rate screening, crude periplasmic extract, biotinylated human FRα on streptavidin biosensors
# Protocol: as §3
# [9] = molecular target: T3, human folate receptor alpha expressed on cells (transfected HEK293T, HeLa, MCF7, MDA-MB-231) (human, UniProt P15328 25-234); experiment: flow cytometry on HeLa cells, anti-Flag detection
# T3 construct: HEK293T transiently transfected with human FOLR1; also called native human FRα; cell-expressed human FOLR1
# Protocol: EC₅₀ values are found in Table 9. Detection of VHH cell binding was done through anti-Flag M2 mIgG1 followed by anti-mFc-PE in flow cytometry. Results are depicted as mean fluorescence intensity ^{∘}MFI).
# (§4) Off-rates of purified variants were determined to human, mouse, and cynomolgus FRα in BLI. In addition, binding of the affinity optimised variants to cell-expressed human FRα on HeLa cells was determined by flow cytometry ^{∘}FIG. 10 B).
# [10] = molecular target: T1, human folate receptor alpha (hFRα), …; experiment: BLI, purified VHH
# Outline: (§5)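 Affinity-optimised VHH variants were produced as flag3-His6-tagged proteins in TG-1 E. coli at 0.5 L scale. They were purified from the periplasmic fraction on Ni Sepharose FastFlow columns, desalted, and checked for purity by SDS-PAGE. Off-rates to human, mouse and cynomolgus folate receptor alpha were then determined by biolayer interferometry.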
# [11] = molecular target: T2, mouse folate receptor alpha (mFRα), …; experiment: BLI, purified VHH
# Outline: as §5
# [12] = molecular target: T4, cynomolgus folate receptor alpha, recombinant (cynomolgus, UniProt A0A2K5U044 25-233); experiment: BLI, purified VHH
# T4 construct: also called cyFOLR1; cynomolgus FRα
# Outline: as §5
# [13] = molecular target: T1, human folate receptor alpha (hFRα), …; experiment: BLI, Avi-biotinylated FRα
# Protocol: (§6) Purified VHHs ^{∘}100 nM) were analysed for binding to avi-tagged biotinylated FRα protein captured on streptavidin-biosensors via BLI.
# as §4
# [14] = molecular target: T2, mouse folate receptor alpha (mFRα), …; experiment: BLI, Avi-biotinylated FRα
# Protocol: as §6, §4
# T1 sequence (P15328 25-233 limits assumed): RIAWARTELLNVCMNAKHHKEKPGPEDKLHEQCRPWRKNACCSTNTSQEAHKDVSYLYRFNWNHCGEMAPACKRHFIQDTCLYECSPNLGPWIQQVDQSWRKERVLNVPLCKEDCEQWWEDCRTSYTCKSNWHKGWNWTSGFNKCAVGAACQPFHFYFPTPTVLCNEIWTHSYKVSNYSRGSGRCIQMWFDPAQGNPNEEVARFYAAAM
# T3 sequence (P15328 25-234 limits assumed): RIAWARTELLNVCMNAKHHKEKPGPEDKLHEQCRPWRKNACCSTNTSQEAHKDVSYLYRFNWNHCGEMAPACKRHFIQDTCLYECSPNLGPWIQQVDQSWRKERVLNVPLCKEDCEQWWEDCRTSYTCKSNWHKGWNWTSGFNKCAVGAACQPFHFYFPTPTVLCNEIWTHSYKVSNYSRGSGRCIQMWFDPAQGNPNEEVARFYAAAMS
# T2 sequence (P35846 25-232 limits assumed): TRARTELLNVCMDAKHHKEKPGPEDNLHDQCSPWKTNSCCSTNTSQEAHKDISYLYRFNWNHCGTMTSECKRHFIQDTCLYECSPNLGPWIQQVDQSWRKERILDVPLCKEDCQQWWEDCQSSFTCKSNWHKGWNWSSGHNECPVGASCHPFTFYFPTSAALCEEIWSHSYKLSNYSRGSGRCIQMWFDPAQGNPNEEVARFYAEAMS
# T4 sequence (A0A2K5U044 entry or part of it): as the sequence (P15328 25-233 limits assumed) above, with I2T, W4R, R37K, A146P, H171Y counted along it
Binder,koff [1] [s⁻¹],nm (Fold wt) [1],koff [2] [s⁻¹],nm (Fold wt) [2],binding result [7],binding result [8],other results
B1,0.0712,5.4,0.00762,4.7,,,
B2,,,,,,,koff [3]: 0.0101 s⁻¹; koff [4]: 0.00224 s⁻¹
B3,,,,,,,Fold hu/ms (koff) [5]: 7; Fold to WT (koff) [5]: 2.9; koff [5]: 0.0173 s⁻¹; Fold to 2HF042 (koff) [6]: 0.9; Fold to WT (koff) [6]: 2.6; koff [6]: 0.00258 s⁻¹
B4,,,,,,,Fold hu/ms (koff) [5]: 6; Fold to WT (koff) [5]: 0.7; koff [5]: 0.0145 s⁻¹; Fold to 2HF042 (koff) [6]: 0.9; Fold to WT (koff) [6]: 0.3; koff [6]: 0.00236 s⁻¹
B5,,,,,binds,binds,
B6,,,,,binds,binds,
B7,,,,,binds,binds,
B8,,,,,,,EC50 [9]: 2.52 nM; MFI top [9]: 55300 MFI; koff [10]: 0.000265 s⁻¹; koff [11]: 3.38e-05 s⁻¹; koff [12]: 0.00034 s⁻¹; koff [13]: 0.000295 s⁻¹; koff [14]: 3.38e-05 s⁻¹
B9,0.0747,5.7,0.00614,3.8,,,
B10,,,,,,,Fold hu/ms (koff) [5]: 2; Fold to WT (koff) [5]: 1; koff [5]: 0.0205 s⁻¹; Fold to 2HF042 (koff) [6]: 0.2; Fold to WT (koff) [6]: 1.8; koff [6]: 0.012 s⁻¹
B11,0.381,29,0.0154,9.4,,,
B12,,,,,,,Fold hu/ms (koff) [5]: 6; Fold to WT (koff) [5]: 0.6; koff [5]: 0.0133 s⁻¹; Fold to 2HF042 (koff) [6]: 1; Fold to WT (koff) [6]: 0.3; koff [6]: 0.00215 s⁻¹
B13,0.0259,2,0.00346,2.1,,,
B14,,,,,,,koff [3]: 0.000307 s⁻¹; koff [4]: 2.1e-05 s⁻¹
B15,0.0159,1.2,0.00176,1.1,,,
B16,,,,,,,koff [3]: 0.00151 s⁻¹; koff [4]: 0.000192 s⁻¹
B17,0.024,1.8,0.0035,2.1,,,
B18,,,,,binds,binds,
B19,,,,,binds,binds,
B20,,,,,binds,binds,
B21,,,,,,,EC50 [9]: 2.56 nM; MFI top [9]: 53800 MFI; koff [10]: 0.000307 s⁻¹; koff [11]: 2.11e-05 s⁻¹; koff [12]: 0.000234 s⁻¹; koff [13]: 0.000316 s⁻¹; koff [14]: 2.11e-05 s⁻¹
B22,0.0255,2,0.00241,1.5,,,
B23,,,,,binds,binds,
B24,,,,,,,koff [3]: 0.00266 s⁻¹; koff [4]: 0.000326 s⁻¹
B25,,,,,binds,binds,
B26,,,,,binds,binds,
B27,0.0336,2.5,0.00649,4,,,
B28,0.0269,2,0.00376,2.3,,,
